B3: recombinant human LAG-3–Fc protein (hLAG-3–hFc) (Fc fusion)
chain: LQPGAEVPVVWAQEGAPAQLPCSPTIPLQDLSLLRRAGVTWQHQPDSGPPAAAPGHPLAPGPHPAAPSSWGPRPRRYTVLSVGPGGLRSGRLPLQPRVQLDERGRQRGDFSLWLRPARRADAGEYRAAVHLRDRALSCRLRLRLGQASMTASPPGSLRASDWVILNCSFSRPDRPASVHWFRNRGQGRVPVRESPHHHLAESFLFLPQVSPMDSGPWGCILTYRDGFNVSIMYNLTVLGLEPPTPLTVYAGAGSRVGLPCRLPAGVGTRSFLTAKWTPPGGGPDLLVTGDNGDFTLRLEDVSQAQAGTYTCHIHLQEQQLNATVTLAIITVTPKSFGSPGSLGKLLCEVTPVSGQERFVWSSLDTPSQRSFSGPWLEAQEAQLLSQPWQCQLYQGERLLGAAVYFTELSSPGAQRSGRAPGALPAGHL
B4: recombinant human fibrinogen-like protein-1 (FGL1)–mFc fusion protein (Fc fusion)
chain: LEDCAQEQMRLRAQVRLLETRVKQQQVKIKQLLQENEVQFLDKGDENTVIDLGSKRQYADCSEIFNDGYKLSGFYKIKPLQSPAEFSVYCDMSDGGGWTVIQRRSDGSENFNRGWKDYENGFGNFVQKHGEYWLGNKNLHFLTTQEDYTLKIDLADFEKNSRYAQYKNFKVGDEKNFYELNIGEYSGTAGDSLAGNFHPEVQWWASHQRMKFSTWDRDHDNYEGNCAEEDQSGWWFNRCHSANLNGVYYSGPYTAKTDNGIVWYTWHGWWYSLKSVVMKIRPNDFIPNVI

Experiments:
[1] = target: recombinant human LAG-3–Fc protein (hLAG-3–hFc) (human) (UniProt P18627); experiment: SPR
[2] = target: recombinant human LAG-3–Fc protein (hLAG-3–hFc) (human) (UniProt P18627); experiment: ELISA
[3] = target: hLAG-3–mFc (Homo sapiens) (UniProt P18627); experiment: flow cytometry on cells
[4] = target: cynomolgus monkey LAG-3 (cynomolgus monkey (endogenous in primary CD4+ T cells)); experiment: flow cytometry on cells
[5] = target: full-length human LAG-3 on CHO-S cells (CHO-huLAG-3) (Homo sapiens) (UniProt P18627); experiment: flow cytometry on cells
native human LAG-3 = native human LAG-3 (Homo sapiens, endogenous, UniProt P18627); experiment: immunostaining of cells or tissue
[6] = target: T1, LAG-3 D1 insertion-loop peptide P60[…]75 (Homo sapiens); experiment: ELISA
T1 chain: PGPHPAAPSSWGPRPR

[7] = target: LAG-3 endogenous in normal human pituitary (adenohypophysis) (Homo sapiens, endogenous, UniProt P18627); experiment: immunostaining of cells or tissue
[8] = target: human LAG-3 fusion protein (used for pre-absorption of LAG-3.1-G4P-FITC) (Homo sapiens, UniProt P18627); experiment: immunostaining of cells or tissue
[9] = target: B4; experiment: ELISA
[10] = target: B3; experiment: BLI

relatlimab Fab fragment (Fab 3.5)
Kd [1]: 10 nM

relatlimab (antibody)
EC50 [2]: 0.49 nM | IC50 [2]: 0.019 nM | IC50 [3]: 0.67 nM | EC50 [4]: 29.1 nM | EC50 [5]: 1.46 nM | Kd [1]: 0.12 nM

B1: LAG3.1-G4P (antibody, V domains shown)
VH: QVQLQQWGAGLLKPSETLSLTCAVYGGSFSDYYWNWIRQPPGKGLEWIGEINHNGNTNSNPSLKSRVTLSLDTSKNQFSLKLRSVTAADTAVYYCAFGYSDYEYNWFDPWGQGTLVTVSS
VL: EIVLTQSPATLSLSPGERATLSCRASQSISSYLAWYQQKPGQAPRLLIYDASNRATGIPARFSGSGSGTDFTLTISSLEPEDFAVYYCQQRSNWPLTFGQGTNLEIK
binding result (native human LAG-3): binds | EC50 [6]: 0.44 nM

B2: LAG-3.1-G4P-FITC (fluoresceinated LAG3.1-G4P, parent antibody of relatlimab) (antibody, V domains shown)
VH: QVQLQQWGAGLLKPSETLSLTCAVYGGSFSDYYWNWIRQPPGKGLEWIGEINHNGNTNSNPSLKSRVTLSLDTSKNQFSLKLRSVTAADTAVYYCAFGYSDYEYNWFDPWGQGTLVTVSS
VL: EIVLTQSPATLSLSPGERATLSCRASQSISSYLAWYQQKPGQAPRLLIYDASNRATGIPARFSGSGSGTDFTLTISSLEPEDFAVYYCQQRSNWPLTFGQGTNLEIK
binding result [7]: binds | binding result [8]: binds

B3
EC50 [9]: 0.085 nM

B4
Kd [10]: > 1000 nM
